The Kd is the constant that tells how readily two partners part at equilibrium.

The subject of data set [1] is SIV NC (SIVmne). The experiment in a line: fluorescence anisotropy salt titration. To be noted: FA: 20 mM HEPES pH 7.5, 30-750 mM NaCl, 1 mM MgCl2, 20 µM TCEP, 5 mM 2-mercaptoethanol, room temperature, 400 nM NC, 10 nM RNA (Gag: 20 nM RNA, plus 2 mM …). A general note: Fluorescence polarisation rises when a labelled molecule tumbles more slowly, as on binding a larger partner.

Data set [2] concerns the target HIV-1 NC (HIV-1 NL4-3) (UniProt P12493). Nature of the data set: fluorescence anisotropy salt titration. Particulars: FA: 20 mM HEPES pH 7.5, 30-750 mM NaCl, 1 mM MgCl2, 20 µM TCEP, 5 mM 2-mercaptoethanol, room temperature, 400 nM NC, 10 nM RNA (Gag: 20 nM RNA, plus 2 mM …).
The target is the same in data set [3]. The experiment in a line: single-molecule DNA stretching. Particulars: FA: 20 mM HEPES pH 7.5, 30-750 mM NaCl, 1 mM MgCl2, 20 µM TCEP, 5 mM 2-mercaptoethanol, room temperature, 400 nM NC, 10 nM RNA (Gag: 20 nM RNA, plus 2 mM …).
Data set [4] deals with SIV NC (SIVmne). The experiment in a line: single-molecule DNA stretching. Particulars: FA: 20 mM HEPES pH 7.5, 30-750 mM NaCl, 1 mM MgCl2, 20 µM TCEP, 5 mM 2-mercaptoethanol, room temperature, 400 nM NC, 10 nM RNA (Gag: 20 nM RNA, plus 2 mM …).
In data set [5] the target is T1, HIV-1 NC (HIV-1 NL4-3, UniProt P12493 378-432). The experiment in a line: fluorescence anisotropy salt titration; Kd(1M) extrapolated to 1 M NaCl; Zeff 2.4 ± 0.4; FA: 20 mM HEPES pH 7.5, 30-750 mM NaCl, 1 mM MgCl2, 20 µM TCEP, 5 mM 2-mercaptoethanol, room temperature, 400 nM NC, 10 nM RNA (Gag: 20 nM RNA, plus 2 mM Tris-HCl pH 7.4); stretching buffer not in material. To be noted: protein: recombinant; label: 3' fluorescein (thiosemicarbazide); hairpin.

The target of data set [6] is T1, HIV-1 NC. The experiment in a line: fluorescence anisotropy salt titration; Kd(1M) extrapolated to 1 M NaCl; Zeff 3.6 ± 0.9; FA: 20 mM HEPES pH 7.5, 30-750 mM NaCl, 1 mM MgCl2, 20 µM TCEP, 5 mM 2-mercaptoethanol, room temperature, 400 nM NC, 10 nM RNA (Gag: 20 nM RNA, plus 2 mM Tris-HCl pH 7.4); stretching buffer not in material. To be noted: protein: recombinant; label: 3' fluorescein (thiosemicarbazide); stem-loops.

Data set [7] addresses T1, HIV-1 NC. The experiment in a line: fluorescence anisotropy salt titration; Kd(1M) extrapolated to 1 M NaCl; Zeff 2.6 ± 0.4; FA: 20 mM HEPES pH 7.5, 30-750 mM NaCl, 1 mM MgCl2, 20 µM TCEP, 5 mM 2-mercaptoethanol, room temperature, 400 nM NC, 10 nM RNA (Gag: 20 nM RNA, plus 2 mM Tris-HCl pH 7.4); stretching buffer not in material. Particulars: protein: recombinant; label: 3' fluorescein (thiosemicarbazide); hairpin.

For “AGUCGCUCUGCGGAGAGGCUGGCAGAUUGAGCCCUGGGAGGUUCUCUCCAGCACUAGCAGGUAGAGCCUGGGUGUUCCCUGCUAGACUCUCACCAGCACUUGGCCGGUGCUGGGCAGAGUGACU [SIV TAR RNA]”, the dissociation constant (Kd) in data set [1] stood at 62 µM.

Regarding “CCACGACGGAGUGCUCCUAUAAAGACGCGGGUCGGUACCAGACGGCGUGAGGAGCGGGAGAGGAAGAGGCCUCCGGUUGCAGGUAAGUGCAACACAAAAAAGAAAUAGCUGUCUUUUAUCCAGGAAGGGGUAAUAAGAUAGAGUGG [SIV Psi RNA (WT)]”, in data set [1], the Kd came to 72 µM.

“GGUCUCUCUGGUUAGACCAGAUCUGAGCCUGGGAGCUCUCUGGCUAACUAGGGAACCCACUGCUUAAGCCUCAAUAAAGCUUGCCUUGAGUGCUCAAAGUAGUG [HIV-1 TARpolyA RNA]”: the Kd in data set [1] worked out at 82 µM.

For HIV-1 Psi RNA (WT), the equilibrium dissociation constant (Kd) came out at 4 µM in data set [2] and 3.9 µM in data set [1].

For “dsDNA used for single-molecule stretching”, the Kd in data set [3] is 0.0042 µM; in data set [4], 0.0055 µM.

B1: HIV-1 TARpolyA RNA (structured_RNA)
RNA: GGUCUCUCUGGUUAGACCAGAUCUGAGCCUGGGAGCUCUCUGGCUAACUAGGGAACCCACUGCUUAAGCCUCAAUAAAGCUUGCCUUGAGUGCUCAAAGUAGUG
In the case of B1, in data set [5], the Kd is 120 µM.

B2: SIV Psi RNA (WT) (structured_RNA)
RNA: CCACGACGGAGUGCUCCUAUAAAGACGCGGGUCGGUACCAGACGGCGUGAGGAGCGGGAGAGGAAGAGGCCUCCGGUUGCAGGUAAGUGCAACACAAAAAAGAAAUAGCUGUCUUUUAUCCAGGAAGGGGUAAUAAGAUAGAGUGG
Turning to B2, the dissociation constant Kd in data set [6] is 100 µM.

B3: SIV TAR RNA (structured_RNA)
RNA: AGUCGCUCUGCGGAGAGGCUGGCAGAUUGAGCCCUGGGAGGUUCUCUCCAGCACUAGCAGGUAGAGCCUGGGUGUUCCCUGCUAGACUCUCACCAGCACUUGGCCGGUGCUGGGCAGAGUGACU
Consider B3, for which, in data set [7], the Kd is 81 µM.

The record behind these values is publication PMC5198506, “Mechanistic differences between HIV-1 and SIV nucleocapsid proteins and cross-species HIV-1 genomic RNA recognition”.
